B1: EEHEE_rd4_0647 (parent)
chain: MQVTWGNVTVTFSNPEEAKKYAEKVARKLGGQVELHNGQFRIK

Variants of: B1
Test: folding stability dG (cDNA display proteolysis); higher = more stable
Conditions: PBS, room temperature

Folding stability dG [kcal/mol], by site and new letter:
A22: F 1.07; S 1.24; H 0.174; W 1.04; G 0.944; K 0.426; M 1.48; I 1.43; Y 0.931; P -0.509; R 0.493; L 1.62; Q 0.207; T 0.682; V 1.43; N 0.101; D -0.372; E -0.084; C 1.62
V33: C 1.95; A 1.82; M 1.86; L 2.16; S 1.11; R 0.477; E 0.359; D 0.259; H 0.75; Q 0.541; W 2.13; I 2.62; G 0.276; N 0.506; F 1.85; P 1.22; T 1.22; K 0.686; Y 2.07
E17: S 2.73; R 2.62; T 2.74; I 2.66; K 2.69; N 2.47; M 2.83; V 2.64; Y 2.58; W 2.53; L 2.84; P 1.01; Q 2.76
R27: W 2.3; H 2.51; M 2.59; N 2.37; I 2.52; P 0.58; T 2.31; A 2.78; K 2.88; Y 2.41; G 2.13; L 2.75; D 2.18; E 2.61; V 2.36; F 2.45; S 2.4; C 3.21; Q 2.64
G31: A 2.62; M 2.53; I 2.01; T 2.03; L 2.6; E 1.46; F 2.21; C 2.79; D 1.05; H 2.11; P 0.55; V 2.27; Q 1.87; K 1.8; R 1.8; W 2.39; Y 2.04; N 1.06; S 2.19
A18: D -0.206; P -0.247; M 0.885; G 1.05; C 1.92; T 0.656; L 1; K 0.212; Y 0.88; Q 0.42; F 1.05; N 0.024; I 0.86; R 0.219; E 0.034; S 0.985; W 1.08; V 0.732; H 0.323
K24: A 3.01; C 3.81; H 2.89; G 2.37; T 2.61; I 2.75; W 3.27; S 2.73; L 2.93; E 2.83; F 3.2; M 3.16; D 2.73; R 2.88; N 2.5; Q 2.8; P -0.146; V 2.59; Y 3.25
Y21: E 0.876; S 0.62; I 1.34; P -0.824; V 1.47; T 0.931; M 1.71; L 1.74; F 3.05; G 0.194; W 2.52; K 0.616; Q 0.996; C 2.87; A 1.3; R 0.486; N 0.633; H 1.36; D -0.099
E23: D 2.62; V 2.42; P 0.119; R 2.23; T 2.37; L 2.7; G 1.86; I 2.71; Y 3.15; K 2.29; F 2.98; H 2.69; A 2.43; S 2.15; W 2.73; N 2.44; Q 2.62; M 2.68; C 3.37
L29: M 2.51; R 1.62

— the MegaScale stability set (Tsuboyama et al. 2023)
